According to article PMC10095102, “Conformational Changes of Acyl Carrier Protein Switch the Chain Length Preference of Acyl-ACP Thioesterase ChFatB2” (International Journal of Molecular Sciences, 2023):

T1: acyl-ACP thioesterase ChFatB2 from Cuphea hookeriana, excluding the transit peptide (residues 129-395) (Cuphea hookeriana, UniProt Q39514 129-395)
T1 sequence (looked up): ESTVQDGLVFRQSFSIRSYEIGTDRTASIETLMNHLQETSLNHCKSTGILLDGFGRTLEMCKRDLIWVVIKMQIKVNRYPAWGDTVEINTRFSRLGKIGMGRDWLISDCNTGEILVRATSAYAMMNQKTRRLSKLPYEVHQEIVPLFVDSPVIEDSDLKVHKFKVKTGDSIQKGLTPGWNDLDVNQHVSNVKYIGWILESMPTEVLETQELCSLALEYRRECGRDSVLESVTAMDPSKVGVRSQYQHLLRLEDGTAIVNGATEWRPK

B1: C8-acyl acyl carrier protein from Escherichia coli (natural protein)
chain: STIEERVKKIIGEQLGVKQEEVTNNASFVEDLGADSLDTVELVMALEEEFDTEIPDEEAEKITTVQAAIDYINGHQA
modifications: C8 (8:0) acyl chain on the phosphopantetheine of holo-ACP (residue not given)
notes: also called C8-EcACP; C8-ACP
B2: C10-acyl acyl carrier protein from Escherichia coli (natural protein)
chain: B1 chain
modifications: C10 (10:0) acyl chain on the phosphopantetheine of holo-ACP (residue not given)
notes: also called C10-EcACP
B3: C8-acyl acyl carrier protein 2 from Cuphea lanceolata (residues 54-137) (natural protein, UniProt P52412 54-137, looked up)
chain: QAKPETVTKVCNIVKKQLALPDDSDVSGVSKFSALGADSLDTVEIVMGLEEEFGISVEEESAQSIQTVQDAADLIEKLMEKKGH
modifications: C8 (8:0) acyl chain on the phosphopantetheine of holo-ACP (residue not given)
notes: acyl carrier protein ClACP2, Cuphea lanceolata, UniProt P52412, residues 54-137, excluding the chloroplast transit peptide; also called C8-ClACP2
B4: C10-acyl acyl carrier protein 2 from Cuphea lanceolata (residues 54-137) (natural protein, UniProt P52412 54-137, looked up)
chain: B3 chain
modifications: C10 (10:0) acyl chain on the phosphopantetheine of holo-ACP (residue not given)
notes: acyl carrier protein ClACP2, Cuphea lanceolata, UniProt P52412, residues 54-137, excluding the chloroplast transit peptide; also called C10-ClACP2
B5: holo acyl carrier protein from Escherichia coli (natural protein)
chain: B1 chain
modifications: holo form (phosphopantetheine; residue not given)
notes: also called holo-EcACP; EC-holo-ACP; source: E. coli BAP1 (chromosomal B. subtilis Sfp), purified (Ni-NTA, Superdex 200)
B6: holo acyl carrier protein 2 from Cuphea lanceolata, excluding the chloroplast transit peptide (residues 54-137) (natural protein, UniProt P52412 54-137, looked up)
chain: B3 chain
modifications: holo form (phosphopantetheine; residue not given)
notes: acyl carrier protein ClACP2, Cuphea lanceolata, UniProt P52412, residues 54-137, excluding the chloroplast transit peptide; also called holo-ClACP2; ClACP2; source: E. coli BAP1 (chromosomal B. subtilis Sfp), purified (Ni-NTA, Superdex 200)

molecular target: T1, acyl-ACP thioesterase ChFatB2 from …; experiment: cell-based or functional assay; details: not given

| relative activity of ChFatB2 (thioesterase, DTNB assay) | Binder |
| --- | --- |
| 0.07 µmol/min/mg | B1 |
| 0.17 µmol/min/mg | B2 |
| 0.51 µmol/min/mg | B3 |
| 0.33 µmol/min/mg | B4 |

molecular target: T1, acyl-ACP thioesterase ChFatB2 from …; experiment: liquid crystal assay; ChFatB2 (5 μg/mL, 1.5 µL) dried on DMOAP-coated glass slides; ACP solutions (10 μg/mL, 1.5 µL) deposited on the immobilized ChFatB2, 30 min, washed with deionized water; grayscale of polarised-light images of the liquid crystal cell (Image J); semi-quantitative; holo-ACP defined as 100% binding; details: both partners purified

| grayscale of the liquid crystal image | Binder |
| --- | --- |
| 106 ± 11.8 grayscale | B1 |
| 156 ± 3.2 grayscale | B5 |
| 138 ± 5.3 grayscale | B2 |
| 139 ± 6 grayscale | B3 |
| 96.7 ± 11 grayscale | B4 |
| 145 ± 19.1 grayscale | B6 |

molecular target: T1, acyl-ACP thioesterase ChFatB2 from …; experiment: cell-based or functional assay; details: not given; remark: another data set of the same source

| Km of ChFatB2 thioesterase activity (DTNB assay, Michaelis-Menten fit) | Binder |
| --- | --- |
| 350 µM | B1 |
| 186 µM | B2 |
| 217 µM | B3 |
| 263 µM | B4 |
